The assay deals with T1, human B7-4M (B7-4 membrane form), expressed on transfected COS or CHO cells (human, UniProt Q9NZQ7 19-290).
T1 construct: also called 292
The assay is described as follows: FACS on B7-4M-transfected COS cells. As to the method:
COS cells were transfected with either vector DNA (pCDNAI), or an expression plasmid containing the B7-4M cDNA. After 72 hours, the tansfected COS cells were detached by incubation in PBS containing 0.5 mM EDTA for 30 min. at 37° C.
The ability of COS cells expressing B7-4M to bind to various T cell ligands and antibodies was tested. […] The ability of COS cells expressing B7-4M to bind to IgG and murine ICOS-his fusion protein was also tested. No binding of human B7-4 to murine ICOS was detected (FIG. 9).

T1 sequence (Q9NZQ7 19-290): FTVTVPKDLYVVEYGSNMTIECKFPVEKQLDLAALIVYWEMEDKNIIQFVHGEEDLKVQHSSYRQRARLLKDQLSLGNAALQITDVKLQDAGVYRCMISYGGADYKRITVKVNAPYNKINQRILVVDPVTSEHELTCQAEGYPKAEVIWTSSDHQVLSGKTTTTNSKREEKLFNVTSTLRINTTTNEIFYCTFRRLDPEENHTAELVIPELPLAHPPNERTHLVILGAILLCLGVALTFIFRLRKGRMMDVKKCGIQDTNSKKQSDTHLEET

B1: murine ICOS-his fusion protein (receptor, mouse, UniProt Q9WVS0 21-144, looked up)
chain: EINGSADHRMFSFHNGGVQISCKYPETVQQLKMRLFREREVLCELTKTKGSGNAVSIKNPMLCLYHLSNNSVSFFLNNPDSSQGSYYFCSLSIFDPPPFQERNLSGGYLHIYESQLCCQLKLWL
notes: not shown: his tag
For B1, the binding result is “no binding”.

These data come from patent publication US20020102651A1 (Dana-Farber, published 2002).
